The values that follow come from PMC5014761.

This experiment concerns the target Δ25 FLAG-MRNIP (human) (UniProt Q6NTE8). The experiment is described as follows: co-IP; 1 mg whole-cell extract (20 mM Tris-HCl pH 7.5, 150 mM NaCl, 1% Triton X-100, 1 mM DTT, 1 mM EDTA, Benzonase) with M2 anti-FLAG beads 16 hr at 4°C; eluted with FLAG peptide or by heating; immunoblot; HEK293 stable, tetracycline-inducible or transiently transfected cells; in Figure 2D cells exposed to the indicated doses of IR.
UniProt Q6NTE8, sequence (Q6NTE8 whole entry, stated change not applied): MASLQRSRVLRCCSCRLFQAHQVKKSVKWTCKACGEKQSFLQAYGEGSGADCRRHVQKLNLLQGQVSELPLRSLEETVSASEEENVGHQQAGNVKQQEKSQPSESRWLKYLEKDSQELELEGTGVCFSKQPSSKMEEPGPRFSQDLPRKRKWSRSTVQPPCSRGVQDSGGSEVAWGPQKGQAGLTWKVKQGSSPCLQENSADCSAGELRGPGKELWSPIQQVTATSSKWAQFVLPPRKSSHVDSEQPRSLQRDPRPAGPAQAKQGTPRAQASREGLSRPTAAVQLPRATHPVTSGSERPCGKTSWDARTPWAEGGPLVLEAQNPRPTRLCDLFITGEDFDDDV

For the MRN complex, the percent reduced binding compared to WT MRNIP lay within 50 to 70%.
